Measurements published in PMC4551919 (Nucleic Acids Research, 2015).

B1: UPF1, full length (natural protein)
chain: MSVEAYGPSSQTLTFLDTEEAELLGADTQGSEFEFTDFTLPSQTQTPPGGPGGPGGGGAGGPGGAGAGAAAGQLDAQVGPEGILQNGAVDDSVAKTSQLLAELNFEEDEEDTYYTKDLPIHACSYCGIHDPACVVYCNTSKKWFCNGRGNTSGSHIVNHLVRAKCKEVTLHKDGPLGETVLECYNCGCRNVFLLGFIPAKADSVVVLLCRQPCASQSSLKDINWDSSQWQPLIQDRCFLSWLVKIPSEQEQLRARQITAQQINKLEELWKENPSATLEDLEKPGVDEEPQHVLLRYEDAYQYQNIFGPLVKLEADYDKKLKESQTQDNITVRWDLGLNKKRIAYFTLPKTDSGNEDLVIIWLRDMRLMQGDEICLRYKGDLAPLWKGIGHVIKVPDNYGDEIAIELRSSVGAPVEVTHNFQVDFVWKSTSFDRMQSALKTFAVDETSVSGYIYHKLLGHEVEDVIIKCQLPKRFTAQGLPDLNHSQVYAVKTVLQRPLSLIQGPPGTGKTVTSATIVYHLARQGNGPVLVCAPSNIAVDQLTEKIHQTGLKVVRLCAKSREAIDSPVSFLALHNQIRNMDSMPELQKLQQLKDETGELSSADEKRYRALKRTAERELLMNADVICCTCVGAGDPRLAKMQFRSILIDESTQATEPECMVPVVLGAKQLILVGDHCQLGPVVMCKKAAKAGLSQSLFERLVVLGIRPIRLQVQYRMHPALSAFPSNIFYEGSLQNGVTAADRVKKGFDFQWPQPDKPMFFYVTQGQEEIASSGTSYLNRTEAANVEKITTKLLKAGAKPDQIGIITPYEGQRSYLVQYMQFSGSLHTKLYQEVEIASVDAFQGREKDFIILSCVRANEHQGIGFLNDPRRLNVALTRARYGVIIVGNPKALSKQPLWNHLLNYYKEQKVLVEGPLNNLRESLMQFSKPRKLVNTINPGARFMTTAMYDAREAIIPGSVYDRSSQGRPSSMYFQTHDQIGMISAGPSHVAAMNIPIPFNLVMPPMPPPGYFGQANGPAAGRGTPKGKTGRGGRQKNRFGLPGPSQTNLPNSQASQDVASQPFSQGALTQGYISMSQPSQMSQPGLSQPELSQDSYLGDEFKSQIDVALSQDSTYQGERAYQHGGVTGLSQY
B3: SMG-8 (natural protein)
chain: MAGPVSLRDLLMGASAWMGSESPGGSPTEGGGSAAGGPEPPWREDEICVVGIFGKTALRLNSEKFSLVNTVCDRQVFPLFRHQDPGDPGPGIRTEAGAVGEAGGAEDPGAAAGGSVRGSGAVAEGNRTEAGSQDYSLLQAYYSQESKVLYLLLTSICDNSQLLRACRALQSGEAGGGLSLPHAEAHEFWKHQEKLQCLSLLYLFSVCHILLLVHPTCSFDITYDRVFRALDGLRQKVLPLLKTAIKDCPVGKDWKLNCRPCPPRLLFLFQLNGALKVEPPRNQDPAHPDKPKKHSPKRRLQHALEDQIYRIFRKSRVLTNQSINCLFTVPANQAFVYIVPGSQEEDPVGMLLDQLRSHCTVKDPESLLVPAPLSGPRRYQVMRQHSRQQLSFHIDSSSSSSSGQLVDFTLREFLWQHVELVLSKKGFDDSVGRNPQPSHFELPTYQKWISAASKLYEVAIDGKEEDLGSPTGELTSKILSSIKVLEGFLDIDTKFSENRCQKALPMAHSAYQSNLPHNYTMTVHKNQLAQALRVYSQHARGPAFHKYAMQLHEDCYKFWSNGHQLCEERSLTDQHCVHKFHSLPKSGEKPEADRNPPVLYHNSRARSTGACNCGRKQAPRDDPFDIKAANYDFYQLLEEKCCGKLDHINFPVFEPSTPDPAPAKNESSPAPPDSDADKLKEKEPQTQGESTSLSLALSLGQSTDSLGTYPADPQAGGDNPEVHGQVEVKTEKRPNFVDRQASTVEYLPGMLHSNCPKGLLPKFSSWSLVKLGPAKSYNFHTGLDQQGFIPGTNYLMPWDIVIRTRAEDEGDLDTNSWPAPNKAIPGKRSAVVMGRGRRRDDIARAFVGFEYEDSRGRRFMCSGPDKVMKVMGSGPKESALKALNSDMPLYILSSSQGRGLKPHYAQLMRLFVVVPDAPLQIILMPQVQPGPPPCPVFYPEKQEITLPPDGLWVLRFPYAYVTERGPCFPPKENVQLMSYKVLRGVLKAVTQ

Assays:
[1] = biological target: T1, SMG-1, full length, SBP-tagged (human, UniProt Q96Q15 1-3661); test: cryo-EM structure
T1 sequence (Q96Q15 whole entry): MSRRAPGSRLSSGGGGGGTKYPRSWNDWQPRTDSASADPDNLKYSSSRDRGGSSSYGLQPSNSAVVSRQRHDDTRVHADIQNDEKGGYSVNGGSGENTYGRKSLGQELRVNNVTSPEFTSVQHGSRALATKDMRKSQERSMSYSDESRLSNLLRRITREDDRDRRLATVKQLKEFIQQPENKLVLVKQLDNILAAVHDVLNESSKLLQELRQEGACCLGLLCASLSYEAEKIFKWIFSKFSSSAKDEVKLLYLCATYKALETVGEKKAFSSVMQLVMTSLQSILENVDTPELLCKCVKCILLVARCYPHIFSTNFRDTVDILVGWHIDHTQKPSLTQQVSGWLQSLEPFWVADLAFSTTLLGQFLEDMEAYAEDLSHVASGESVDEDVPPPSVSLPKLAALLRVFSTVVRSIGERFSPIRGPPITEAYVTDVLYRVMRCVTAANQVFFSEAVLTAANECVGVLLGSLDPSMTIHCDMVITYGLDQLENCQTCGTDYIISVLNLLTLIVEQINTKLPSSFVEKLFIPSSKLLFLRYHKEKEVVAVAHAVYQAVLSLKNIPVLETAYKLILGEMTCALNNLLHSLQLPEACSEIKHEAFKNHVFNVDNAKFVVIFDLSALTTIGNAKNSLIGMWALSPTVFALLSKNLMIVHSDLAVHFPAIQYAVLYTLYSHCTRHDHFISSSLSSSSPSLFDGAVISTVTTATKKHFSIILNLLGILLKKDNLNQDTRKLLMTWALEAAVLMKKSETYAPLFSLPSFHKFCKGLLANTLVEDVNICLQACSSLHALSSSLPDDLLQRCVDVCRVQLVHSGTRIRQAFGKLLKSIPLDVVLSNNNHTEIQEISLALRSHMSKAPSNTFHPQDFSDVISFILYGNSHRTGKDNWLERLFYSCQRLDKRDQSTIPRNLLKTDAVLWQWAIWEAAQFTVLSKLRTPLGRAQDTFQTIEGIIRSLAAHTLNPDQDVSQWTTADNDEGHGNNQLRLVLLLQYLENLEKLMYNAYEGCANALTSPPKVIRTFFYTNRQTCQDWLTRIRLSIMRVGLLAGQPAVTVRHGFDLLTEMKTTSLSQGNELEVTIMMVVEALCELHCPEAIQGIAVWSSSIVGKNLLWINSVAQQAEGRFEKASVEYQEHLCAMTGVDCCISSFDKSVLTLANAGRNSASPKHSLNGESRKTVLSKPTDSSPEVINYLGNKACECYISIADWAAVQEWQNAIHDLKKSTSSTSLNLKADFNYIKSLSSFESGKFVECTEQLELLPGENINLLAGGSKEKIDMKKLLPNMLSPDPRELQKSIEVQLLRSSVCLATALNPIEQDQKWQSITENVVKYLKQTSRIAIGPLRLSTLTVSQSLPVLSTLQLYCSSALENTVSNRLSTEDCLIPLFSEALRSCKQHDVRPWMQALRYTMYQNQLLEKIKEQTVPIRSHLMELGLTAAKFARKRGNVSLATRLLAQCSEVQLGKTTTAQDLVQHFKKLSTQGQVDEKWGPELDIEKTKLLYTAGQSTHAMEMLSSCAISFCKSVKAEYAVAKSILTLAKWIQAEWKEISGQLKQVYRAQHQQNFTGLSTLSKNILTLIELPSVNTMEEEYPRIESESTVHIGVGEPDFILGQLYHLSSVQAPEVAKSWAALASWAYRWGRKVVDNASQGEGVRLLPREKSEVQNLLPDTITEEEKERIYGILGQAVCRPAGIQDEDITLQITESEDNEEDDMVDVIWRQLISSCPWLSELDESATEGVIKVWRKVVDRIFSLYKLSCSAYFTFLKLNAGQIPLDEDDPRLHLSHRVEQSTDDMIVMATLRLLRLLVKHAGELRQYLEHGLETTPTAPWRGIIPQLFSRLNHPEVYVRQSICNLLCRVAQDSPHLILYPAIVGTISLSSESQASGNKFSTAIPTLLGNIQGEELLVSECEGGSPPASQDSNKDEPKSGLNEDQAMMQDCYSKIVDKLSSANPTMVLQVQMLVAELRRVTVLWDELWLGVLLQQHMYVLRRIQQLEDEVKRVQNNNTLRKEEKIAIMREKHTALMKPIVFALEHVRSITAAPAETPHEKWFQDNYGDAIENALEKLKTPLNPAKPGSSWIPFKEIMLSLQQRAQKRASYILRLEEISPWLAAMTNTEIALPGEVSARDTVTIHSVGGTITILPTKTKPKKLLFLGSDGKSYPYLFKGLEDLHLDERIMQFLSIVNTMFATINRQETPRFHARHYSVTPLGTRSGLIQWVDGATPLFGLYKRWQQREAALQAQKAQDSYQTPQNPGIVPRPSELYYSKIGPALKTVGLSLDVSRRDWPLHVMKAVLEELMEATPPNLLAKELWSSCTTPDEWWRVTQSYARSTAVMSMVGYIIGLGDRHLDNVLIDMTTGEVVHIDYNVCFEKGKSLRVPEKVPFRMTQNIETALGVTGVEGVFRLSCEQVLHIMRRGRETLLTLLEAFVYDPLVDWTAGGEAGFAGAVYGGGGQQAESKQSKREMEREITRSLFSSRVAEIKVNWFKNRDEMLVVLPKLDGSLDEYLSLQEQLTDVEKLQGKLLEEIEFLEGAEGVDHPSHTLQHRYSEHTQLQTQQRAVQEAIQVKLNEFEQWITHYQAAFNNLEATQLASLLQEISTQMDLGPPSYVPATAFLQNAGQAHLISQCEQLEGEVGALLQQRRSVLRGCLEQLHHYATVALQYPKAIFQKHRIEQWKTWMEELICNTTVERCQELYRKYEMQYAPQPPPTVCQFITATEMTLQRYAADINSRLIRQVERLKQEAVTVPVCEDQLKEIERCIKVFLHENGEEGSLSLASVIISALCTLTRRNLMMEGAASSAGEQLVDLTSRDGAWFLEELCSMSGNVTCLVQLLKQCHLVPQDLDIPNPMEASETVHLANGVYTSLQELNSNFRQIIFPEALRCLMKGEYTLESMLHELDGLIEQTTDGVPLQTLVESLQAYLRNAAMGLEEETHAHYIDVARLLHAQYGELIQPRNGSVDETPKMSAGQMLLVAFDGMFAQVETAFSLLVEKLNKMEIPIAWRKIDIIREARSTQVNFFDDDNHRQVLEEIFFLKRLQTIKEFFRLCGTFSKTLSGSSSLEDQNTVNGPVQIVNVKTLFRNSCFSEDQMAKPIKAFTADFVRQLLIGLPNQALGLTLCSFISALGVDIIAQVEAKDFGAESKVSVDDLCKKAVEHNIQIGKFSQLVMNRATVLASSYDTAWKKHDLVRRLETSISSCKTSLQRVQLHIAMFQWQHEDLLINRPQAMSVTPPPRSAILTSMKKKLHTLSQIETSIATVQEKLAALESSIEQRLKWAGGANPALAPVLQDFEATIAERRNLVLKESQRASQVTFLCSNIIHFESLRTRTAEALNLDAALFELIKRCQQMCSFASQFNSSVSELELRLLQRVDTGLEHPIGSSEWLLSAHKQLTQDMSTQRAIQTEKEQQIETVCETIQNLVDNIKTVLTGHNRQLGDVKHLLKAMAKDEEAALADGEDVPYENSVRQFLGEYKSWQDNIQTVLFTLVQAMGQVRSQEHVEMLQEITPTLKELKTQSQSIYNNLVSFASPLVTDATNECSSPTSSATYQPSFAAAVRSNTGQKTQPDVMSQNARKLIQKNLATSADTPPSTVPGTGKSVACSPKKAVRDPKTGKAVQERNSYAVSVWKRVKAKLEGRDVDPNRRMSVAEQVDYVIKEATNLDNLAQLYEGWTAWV

SMG-1–8–9 complex = SMG-1–8–9 complex (human | , UniProt Q96Q15;Q8ND04;Q9H0W8); test: negative-stain electron microscopy
Chain of SMG-1–8–9 complex (Q96Q15 whole entry, one chain of several): as the sequence (Q96Q15 whole entry) above

UPF1, full length [2] = biological target: B1; test: cross-linking
[3] = biological target: T1, SMG-1, full length, SBP-tagged; test: cross-linking
SMG-8 = biological target: B3; test: cross-linking
UPF1, full length [4] = biological target: B1; test: SEC

Binder: B1
- binding result [1]: binds
- binding result (SMG-1–8–9 complex): binds

B2: SMG-9 (natural protein)
chain: MSESGHSQPGLYGIERRRRWKEPGSGGPQNLSGPGGRERDYIAPWERERRDASEETSTSVMQKTPIILSKPPAERSKQPPPPTAPAAPPAPAPLEKPIVLMKPREEGKGPVAVTGASTPEGTAPPPPAAPAPPKGEKEGQRPTQPVYQIQNRGMGTAAPAAMDPVVGQAKLLPPERMKHSIKLVDDQMNWCDSAIEYLLDQTDVLVVGVLGLQGTGKSMVMSLLSANTPEEDQRTYVFRAQSAEMKERGGNQTSGIDFFITQERIVFLDTQPILSPSILDHLINNDRKLPPEYNLPHTYVEMQSLQIAAFLFTVCHVVIVVQDWFTDLSLYRFLQTAEMVKPSTPSPSHESSSSSGSDEGTEYYPHLVFLQNKARREDFCPRKLRQMHLMIDQLMAHSHLRYKGTLSMLQCNVFPGLPPDFLDSEVNLFLVPFMDSEAESENPPRAGPGSSPLFSLLPGYRGHPSFQSLVSKLRSQVMSMARPQLSHTILTEKNWFHYAARIWDGVRKSSALAEYSRLLA
- binding result (UPF1, full length [2]): binds
- binding result [3]: binds
- binding result (SMG-8): binds

Binder: B3
- binding result [3]: binds

B4: UPF2 (121–1227) (domain or fragment)
chain: MKEKEESIQLHQEAWERHHLRKELRSKNQNAPDSRPEENFFSRLDSSLKKNTAFVKKLKTITEQQRDSLSHDFNGLNLSKYIAEAVASIVEAKLKISDVNCAVHLCSLFHQRYADFAPSLLQVWKKHFEARKEEKTPNITKLRTDLRFIAELTIVGIFTDKEGLSLIYEQLKNIINADRESHTHVSVVISFCRHCGDDIAGLVPRKVKSAAEKFNLSFPPSEIISPEKQQPFQNLLKEYFTSLTKHLKRDHRELQNTERQNRRILHSKGELSEDRHKQYEEFAMSYQKLLANSQSLADLLDENMPDLPQDKPTPEEHGPGIDIFTPGKPGEYDLEGGIWEDEDARNFYENLIDLKAFVPAILFKDNEKSCQNKESNKDDTKEAKESKENKEVSSPDDLELELENLEINDDTLELEGGDEAEDLTKKLLDEQEQEDEEASTGSHLKLIVDAFLQQLPNCVNRDLIDKAAMDFCMNMNTKANRKKLVRALFIVPRQRLDLLPFYARLVATLHPCMSDVAEDLCSMLRGDFRFHVRKKDQINIETKNKTVRFIGELTKFKMFTKNDTLHCLKMLLSDFSHHHIEMACTLLETCGRFLFRSPESHLRTSVLLEQMMRKKQAMHLDARYVTMVENAYYYCNPPPAEKTVKKKRPPLQEYVRKLLYKDLSKVTTEKVLRQMRKLPWQDQEVKDYVICCMINIWNVKYNSIHCVANLLAGLVLYQEDVGIHVVDGVLEDIRLGMEVNQPKFNQRRISSAKFLGELYNYRMVESAVIFRTLYSFTSFGVNPDGSPSSLDPPEHLFRIRLVCTILDTCGQYFDRGSSKRKLDCFLVYFQRYVWWKKSLEVWTKDHPFPIDIDYMISDTLELLRPKIKLCNSLEESIRQVQDLEREFLIKLGLVNDKDSKDSMTEGENLEEDEEEEEGGAETEEQSGNESEVNEPEEEEGSDNDDDEGEEEEEENTDYLTDSNKENETDEENTEVMIKGGGLKHVPCVEDEDFIQALDKMMLENLQQRSGESVKVHQLDVAIPLHLKSQLRKGPPLGGGEGEAESADTMPFVMLTRKGNKQQFKILNVPMSSQLAANHWNQQQAEQEERMRMKKLTLDINERQEQED
- binding result (UPF1, full length [4]): binds
